The values below come from publication PMC4545750.

For this experiment, the target named is Krimper Tudor2 domain (562-746) (D. melanogaster) (UniProt A1ZAC4). The experiment is described as follows: ITC.
UniProt A1ZAC4, sequence (A1ZAC4 562-746): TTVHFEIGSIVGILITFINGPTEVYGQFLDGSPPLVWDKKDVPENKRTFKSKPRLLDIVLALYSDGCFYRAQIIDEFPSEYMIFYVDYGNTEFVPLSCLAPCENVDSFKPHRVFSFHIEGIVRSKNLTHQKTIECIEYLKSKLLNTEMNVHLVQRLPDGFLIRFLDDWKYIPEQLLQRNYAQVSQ

“Aubergine peptide (residues 6 to 18) with symmetrically di-methylated arginine 11 (from UniProt O76922 6-18)”: the Kd (in general, the constant that tells how readily two partners part at equilibrium) is 16.3 µM.

“Aubergine peptide (residues 6 to 18) with symmetrically di-methylated arginine 15 (from UniProt O76922 6-18)” registered a dissociation constant Kd of 4.1 µM. Compared with the last substance, the Kd is about 4-fold lower.
